Biological target: T1, DLL4 (DLL ECD His tag, R&D 1506-D4-050) (UniProt Q9NR61 27-529)
T1 construct: extracellular domain; bought
Test: BIACORE (SPR), DVD-Ig against DLL4

Binder	Kd [nM]	koff [s⁻¹]	kon [M⁻¹ s⁻¹]
DVD521 (bispecific antibody, human IgG1, kappa, lambda, L234A L235A, DVD-Ig; N-term; VD DLL4 (AB073), C-term; VD VEGF (AB071); HC linker long, LC linker long; also called DVD-Ig DVD521; DVD521H) heavy: not shown light: QAVVTQESALTTSPGETVTLTCRSSTGAVTTSNYANWVQEKPDHLFTGLIGGTNNRAPGVPARFSGSLIGDKAALTITGAQTEDEAIYFCALWYSNHWVFGGGTKLTVLGQPKAAPSVTLFPPDIQMTQSPSSLSASVGDRVTITCRASQVIRRSLAWYQQKPGKAPKLLIYAASNLASGVPSRFSGSGSGTDFTLTISSLQPEDFATYYCQQSNTSPLTFGQGTKVEIKRTVAAPSVFIFPPSDEQLKSGTASVVCLLNNFYPREAKVQWKVDNALQSGNSQESVTEQDSKDSTYSLSSTLTLSKADYEKHKVYACEVTHQGLSSPVTKSFNRGEC	1.77	0.00168	947000
DVD533 (bispecific antibody, human IgG1, kappa, lambda, L234A L235A, DVD-Ig; N-term; VD DLL4 (AB073), C-term; VD VEGF (AB071); HC linker short, LC linker long; also called DVD-Ig DVD533; DVD533H) heavy: not shown light: QAVVTQESALTTSPGETVTLTCRSSTGAVTTSNYANWVQEKPDHLFTGLIGGTNNRAPGVPARFSGSLIGDKAALTITGAQTEDEAIYFCALWYSNHWVFGGGTKLTVLGQPKAAPSVTLFPPDIQMTQSPSSLSASVGDRVTITCRASQVIRRSLAWYQQKPGKAPKLLIYAASNLASGVPSRFSGSGSGTDFTLTISSLQPEDFATYYCQQSNTSPLTFGQGTKVEIKRTVAAPSVFIFPPSDEQLKSGTASVVCLLNNFYPREAKVQWKVDNALQSGNSQESVTEQDSKDSTYSLSSTLTLSKADYEKHKVYACEVTHQGLSSPVTKSFNRGEC	2.22	0.00133	598000
DVD451 (bispecific antibody, human IgG1, kappa, L234A L235A, DVD-Ig; N-term; VD DLL4 (AB069), C-term; VD VEGF (AB071); HC linker long, LC linker long; also called DVD-Ig DVD451; DVD451H) heavy: not shown light: DIVMTQSPDSLAVSLGERATISCRASESVDNYGISFMKWFQQKPGQPPKLLIYAASNQGSGVPDRFSGSGSGTDFTLTISSLQAEDVAVYYCQQSKEVPWTFGGGTKVEIKRTVAAPSVFIFPPDIQMTQSPSSLSASVGDRVTITCRASQVIRRSLAWYQQKPGKAPKLLIYAASNLASGVPSRFSGSGSGTDFTLTISSLQPEDFATYYCQQSNTSPLTFGQGTKVEIKRTVAAPSVFIFPPSDEQLKSGTASVVCLLNNFYPREAKVQWKVDNALQSGNSQESVTEQDSKDSTYSLSSTLTLSKADYEKHKVYACEVTHQGLSSPVTKSFNRGEC	14	0.001	71700
DVD463 (bispecific antibody, human IgG1, kappa, DVD-Ig; N-term; VD DLL4 (AB069), C-term; VD VEGF (AB071); HC linker short, LC linker long; also called DVD-Ig DVD463; DVD463H) heavy: not shown light: DIVMTQSPDSLAVSLGERATISCRASESVDNYGISFMKWFQQKPGQPPKLLIYAASNQGSGVPDRFSGSGSGTDFTLTISSLQAEDVAVYYCQQSKEVPWTFGGGTKVEIKRTVAAPSVFIFPPDIQMTQSPSSLSASVGDRVTITCRASQVIRRSLAWYQQKPGKAPKLLIYAASNLASGVPSRFSGSGSGTDFTLTISSLQPEDFATYYCQQSNTSPLTFGQGTKVEIKRTVAAPSVFIFPPSDEQLKSGTASVVCLLNNFYPREAKVQWKVDNALQSGNSQESVTEQDSKDSTYSLSSTLTLSKADYEKHKVYACEVTHQGLSSPVTKSFNRGEC	3.82	0.000472	123000

Stronger by Kd, values ahead:

Kd [nM]	koff [s⁻¹]	kon [M⁻¹ s⁻¹]	Binder
0.441	0.000174	395000	DVD479 (bispecific antibody, human IgG1, kappa, DVD-Ig; N-term; VD DLL4 (AB015), C-term; VD VEGF (AB071); HC linker long, LC linker short; also called DVD-Ig DVD479; DVD479H) heavy: not shown light: DIQMTQSPSSLSASVGDRVTITCRASQDVSTAVAWYQQKPGKAPKLLIYSASFLYSGVPSRFSGSGSGTDFTLTISSLQPEDFATTYYCQQSYTGTVTFGQGTKVEIKRTVAAPDIQMTQSPSSLSASVGDRVTITCRASQVIRRSLAWYQQKPGKAPKLLIYAASNLASGVPSRFSGSGSGTDFTLTISSLQPEDFATYYCQQSNTSPLTFGQGTKVEIKRTVAAPSVFIFPPSDEQLKSGTASVVCLLNNFYPREAKVQWKVDNALQSGNSQESVTEQDSKDSTYSLSSTLTLSKADYEKHKVYACEVTHQGLSSPVTKSFNRGEC
0.266	7.12e-05	268000	DVD497 (bispecific antibody, human IgG1, kappa, DVD-Ig; N-term; VD DLL4 (AB072), C-term; VD VEGF (AB071); HC linker long, LC linker long; also called DVD-Ig DVD497; DVD497H) heavy: not shown light: DIQMTQSSSYLSVSLGGRVTITCKASDHINNWLAWYQQKPGNAPRLLISGATSLETGVPSRFSGSGSGKDYTLSITSLQTEDVATYYCQQYWSIPLTFGAGTKLELKRTVAAPSVFIFPPDIQMTQSPSSLSASVGDRVTITCRASQVIRRSLAWYQQKPGKAPKLLIYAASNLASGVPSRFSGSGSGTDFTLTISSLQPEDFATYYCQQSNTSPLTFGQGTKVEIKRTVAAPSVFIFPPSDEQLKSGTASVVCLLNNFYPREAKVQWKVDNALQSGNSQESVTEQDSKDSTYSLSSTLTLSKADYEKHKVYACEVTHQGLSSPVTKSFNRGEC
0.192	4.72e-05	246000	DVD503 (bispecific antibody, human IgG1, kappa, DVD-Ig; N-term; VD DLL4 (AB072), C-term; VD VEGF (AB071); HC linker long, LC linker short; also called DVD-Ig DVD503; DVD503H) heavy: not shown light: DIQMTQSSSYLSVSLGGRVTITCKASDHINNWLAWYQQKPGNAPRLLISGATSLETGVPSRFSGSGSGKDYTLSITSLQTEDVATYYCQQYWSIPLTFGAGTKLELKRTVAAPDIQMTQSPSSLSASVGDRVTITCRASQVIRRSLAWYQQKPGKAPKLLIYAASNLASGVPSRFSGSGSGTDFTLTISSLQPEDFATYYCQQSNTSPLTFGQGTKVEIKRTVAAPSVFIFPPSDEQLKSGTASVVCLLNNFYPREAKVQWKVDNALQSGNSQESVTEQDSKDSTYSLSSTLTLSKADYEKHKVYACEVTHQGLSSPVTKSFNRGEC
0.153	3.52e-05	230000	DVD509 (bispecific antibody, human IgG1, kappa, DVD-Ig; N-term; VD DLL4 (AB072), C-term; VD VEGF (AB071); HC linker short, LC linker long; also called DVD-Ig DVD509; DVD509H) heavy: not shown light: DIQMTQSSSYLSVSLGGRVTITCKASDHINNWLAWYQQKPGNAPRLLISGATSLETGVPSRFSGSGSGKDYTLSITSLQTEDVATYYCQQYWSIPLTFGAGTKLELKRTVAAPSVFIFPPDIQMTQSPSSLSASVGDRVTITCRASQVIRRSLAWYQQKPGKAPKLLIYAASNLASGVPSRFSGSGSGTDFTLTISSLQPEDFATYYCQQSNTSPLTFGQGTKVEIKRTVAAPSVFIFPPSDEQLKSGTASVVCLLNNFYPREAKVQWKVDNALQSGNSQESVTEQDSKDSTYSLSSTLTLSKADYEKHKVYACEVTHQGLSSPVTKSFNRGEC

Source: patent US20100260668A1 (published 2010)
